This note sets out measurements from patent US20250304666A1 (ALCHEMAB THERAPEUTICS, published 2025).

In experiment [1] the target is T1, non-reduced CFH.
T1 construct: also called CFH (NON-REDUCED)
T1 chain: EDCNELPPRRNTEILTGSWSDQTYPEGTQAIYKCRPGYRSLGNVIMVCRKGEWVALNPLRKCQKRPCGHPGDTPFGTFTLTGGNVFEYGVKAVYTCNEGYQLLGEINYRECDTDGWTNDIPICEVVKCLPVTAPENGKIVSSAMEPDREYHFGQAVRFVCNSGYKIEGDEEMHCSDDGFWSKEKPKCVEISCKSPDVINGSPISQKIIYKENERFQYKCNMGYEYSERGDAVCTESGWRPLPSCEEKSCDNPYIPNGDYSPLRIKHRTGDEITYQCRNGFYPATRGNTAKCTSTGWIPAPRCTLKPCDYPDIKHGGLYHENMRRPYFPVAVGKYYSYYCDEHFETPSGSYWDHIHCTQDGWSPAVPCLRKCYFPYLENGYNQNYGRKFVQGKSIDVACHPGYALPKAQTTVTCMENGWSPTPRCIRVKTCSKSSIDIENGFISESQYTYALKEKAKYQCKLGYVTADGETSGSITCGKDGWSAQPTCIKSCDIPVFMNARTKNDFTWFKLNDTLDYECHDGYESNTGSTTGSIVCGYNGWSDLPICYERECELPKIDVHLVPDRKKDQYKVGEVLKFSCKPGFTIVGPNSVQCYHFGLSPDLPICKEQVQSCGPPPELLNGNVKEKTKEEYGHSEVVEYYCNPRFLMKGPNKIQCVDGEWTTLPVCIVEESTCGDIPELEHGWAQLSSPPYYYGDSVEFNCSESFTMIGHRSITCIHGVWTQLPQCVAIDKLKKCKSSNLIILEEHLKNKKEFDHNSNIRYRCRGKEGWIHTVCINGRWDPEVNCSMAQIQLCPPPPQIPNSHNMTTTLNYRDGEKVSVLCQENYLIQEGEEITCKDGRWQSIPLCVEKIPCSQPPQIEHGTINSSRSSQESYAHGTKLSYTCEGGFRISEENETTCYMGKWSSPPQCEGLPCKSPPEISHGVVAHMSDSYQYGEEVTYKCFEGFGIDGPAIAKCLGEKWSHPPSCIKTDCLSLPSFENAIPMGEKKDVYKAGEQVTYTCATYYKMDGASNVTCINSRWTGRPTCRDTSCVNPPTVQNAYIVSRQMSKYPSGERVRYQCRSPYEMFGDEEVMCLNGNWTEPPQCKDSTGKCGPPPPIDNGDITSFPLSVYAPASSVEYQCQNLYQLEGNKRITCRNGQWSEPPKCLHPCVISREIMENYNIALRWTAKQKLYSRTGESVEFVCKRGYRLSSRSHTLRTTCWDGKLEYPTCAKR
Description: direct ELISA on non-reduced CFH. (In general: An ELISA detects its analyte on a solid surface through an enzyme-linked reagent.)

Experiment [2] has as its target T2, reduced CFHR3 (UniProt Q02985 19-330, limits assumed).
T2 sequence (looked up): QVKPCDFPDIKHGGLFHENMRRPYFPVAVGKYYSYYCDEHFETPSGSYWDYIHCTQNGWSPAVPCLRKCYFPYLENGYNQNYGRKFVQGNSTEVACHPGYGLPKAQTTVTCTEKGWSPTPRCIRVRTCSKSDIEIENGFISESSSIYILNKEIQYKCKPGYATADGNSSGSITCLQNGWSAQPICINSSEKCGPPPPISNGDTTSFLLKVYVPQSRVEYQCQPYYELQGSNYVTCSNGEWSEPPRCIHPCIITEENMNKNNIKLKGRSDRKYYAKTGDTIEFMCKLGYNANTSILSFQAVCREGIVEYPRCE
Description: ELISA on reduced CFHR3.

The target of experiment [3] is T3, reduced CFHR5 (UniProt Q9BXR6 19-569, limits assumed).
T3 sequence (looked up): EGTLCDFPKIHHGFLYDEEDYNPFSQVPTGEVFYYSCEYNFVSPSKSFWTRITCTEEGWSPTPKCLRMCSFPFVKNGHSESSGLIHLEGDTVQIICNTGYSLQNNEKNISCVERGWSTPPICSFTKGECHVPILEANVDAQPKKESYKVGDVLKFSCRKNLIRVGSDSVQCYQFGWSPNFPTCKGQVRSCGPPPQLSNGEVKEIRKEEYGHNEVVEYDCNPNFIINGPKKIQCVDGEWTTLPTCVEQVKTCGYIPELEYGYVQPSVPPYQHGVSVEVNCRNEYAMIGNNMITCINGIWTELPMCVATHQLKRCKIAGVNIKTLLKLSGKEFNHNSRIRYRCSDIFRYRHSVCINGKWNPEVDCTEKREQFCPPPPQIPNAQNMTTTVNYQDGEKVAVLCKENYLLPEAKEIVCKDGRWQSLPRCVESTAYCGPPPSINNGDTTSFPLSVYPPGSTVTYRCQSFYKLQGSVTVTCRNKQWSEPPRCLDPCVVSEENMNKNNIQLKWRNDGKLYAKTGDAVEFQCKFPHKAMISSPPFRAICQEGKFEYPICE
Description: ELISA on reduced CFHR5.

B1: ATL4717 (antibody, human IgG1, kappa, V domains shown)
VH: QVQLVESGGGMVQPGRSLRLSCAASGFTFSIYGMHWVRQAPGRGLEWVAVMSFDGKTKYYADSVKGRFTISRDNSKNTLYLQMNSLRRVDTAVYYCAKGGATAAVFDSWGQGTLVTVSS
VL: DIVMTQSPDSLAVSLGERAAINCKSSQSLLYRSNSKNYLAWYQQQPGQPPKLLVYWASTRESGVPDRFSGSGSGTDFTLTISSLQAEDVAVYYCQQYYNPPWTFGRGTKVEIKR
notes: Human IgG1; also called ATL0004717; ATL04717
Broadly, the EC50 (read off the curve) is the concentration needed to bring the measured effect to its halfway point. A low value points to greater potency. Regarding B1, the “EC50 (read off the curve)” value in experiment [1] is around 0.2 nM.

B2: ATL5170 (antibody, human IgG1, kappa, V domains shown)
VH: QVQLVESGGGVVQPGRSLRLSCAASGFTFSNYGMHWVRQAPGKGLEWVAVTSFDGKTKYYADSVKGRFTISRDNSKNTLYLQMNSLRAEDTAVYYCAKGGATAAVLDSWGQGTLVTVSS
VL: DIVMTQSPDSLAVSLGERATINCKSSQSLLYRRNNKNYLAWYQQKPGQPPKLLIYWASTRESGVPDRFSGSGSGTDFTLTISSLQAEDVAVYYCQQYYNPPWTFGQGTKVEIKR
notes: IgG1; also called ATL_0005170
For the molecule B2, the binding result in experiment [2] and in experiment [3] was “no binding (tested: 100 ug/ml)” throughout.
